We go through 94 variants from the supplement of paper PMC10567573.

B1: STX5 (parent)
chain: ESTIVELGSIFQQLAHMVKEQEET
B2: FAM116A (parent)
chain: TVHEVDIFRCFCPVFLHSQMLWEL
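Also: lentivirally expressed fusions sorted by FACS into six bins by GFP to DsRed ratio, PSI derived from sequencing read proportions per bin multiplied by bin number.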

Variants of B1 are the subject of the first data set. Kind of data set: protein stability index of a GFP-peptide fusion (GPS, HEK-293T) (PSI 1-6); higher = more stable. The settings on record: c terminus: a fixed tail appended.
Take ESTIVELGSIFQQLAHMVKEQEEQ [T24Q]: the protein stability index was 1.59. For ESTIVELGSIFQQLAHMVKEQEEV [T24V], the protein stability index amounted to 2.01. For ESTIVELGSIFQQLAHMVKEQEEW [T24W], the protein stability index is 2.89. Still for that read-out and setting: in the case of ESTIVELGSIFQQLAHMVKEQEEY [T24Y] it was 2.29; in that of ESTIVELGSIFQQLAHMVKEQEER [T24R], 2.12. On the same count and under the same terms, next, ESTIVELGSIFQQLAHMVKEQEES [T24S]: 2.

In a further data set the parent is B2. The data set is described as above. The settings on record: c terminus: a fixed tail appended.
Regarding TVHEVDNFRCFCPVFLHSQMLWEL [I7N], the protein stability index worked out at 1.09. Still for that read-out and setting: in the case of TVHEVDTFRCFCPVFLHSQMLWEL [I7T] it was 2.49; in that of TVHEVDMFRCFCPVFLHSQMLWEL [I7M], 1.22. The same measure, in the same setting: next, TVHEVDGFRCFCPVFLHSQMLWEL [I7G]: 3.26; TVHEVDYFRCFCPVFLHSQMLWEL [I7Y]: 3.48; TVHEVDCFRCFCPVFLHSQMLWEL [I7C]: 2.28. The same measure, in the same setting: next, TVHEVDRFRCFCPVFLHSQMLWEL [I7R]: 1.94. Take QVHEVDIFRCFCPVFLHSQMLWEL [T1Q]: the protein stability index was determined as 3.46. Same read-out and setting: in the case of MVHEVDIFRCFCPVFLHSQMLWEL [T1M] it was 1.98; in that of RVHEVDIFRCFCPVFLHSQMLWEL [T1R], 3.09; in that of KVHEVDIFRCFCPVFLHSQMLWEL [T1K], 2.66. Consider LVHEVDIFRCFCPVFLHSQMLWEL [T1L], for which the protein stability index is 1.68. As for IVHEVDIFRCFCPVFLHSQMLWEL [T1I], the protein stability index is 1.4. The same measure, in the same setting: in the case of PVHEVDIFRCFCPVFLHSQMLWEL [T1P] it was 1.67; in that of GVHEVDIFRCFCPVFLHSQMLWEL [T1G], 1.75; in that of YVHEVDIFRCFCPVFLHSQMLWEL [T1Y], 2.93. The same measure, in the same setting: in the case of HVHEVDIFRCFCPVFLHSQMLWEL [T1H] it was 3.11. As for DVHEVDIFRCFCPVFLHSQMLWEL [T1D], the protein stability index came out at 4.17. Consider TVHCVDIFRCFCPVFLHSQMLWEL [E4C], for which the protein stability index turned out to be 1.53. Still for that read-out and setting: in the case of TVHQVDIFRCFCPVFLHSQMLWEL [E4Q] it was 1.79; in that of TVHDVDIFRCFCPVFLHSQMLWEL [E4D], 1.46; in that of TVHHVDIFRCFCPVFLHSQMLWEL [E4H], 3.03. On the same count and under the same terms, next, TVHTVDIFRCFCPVFLHSQMLWEL [E4T]: 3.43. With TVHKVDIFRCFCPVFLHSQMLWEL [E4K], the protein stability index was found to be 3.86.

With TVHPVDIFRCFCPVFLHSQMLWEL [E4P], the protein stability index was determined as 3.77.

Turning to TVHIVDIFRCFCPVFLHSQMLWEL [E4I], the protein stability index stood at 3.19. In the case of TVHSVDIFRCFCPVFLHSQMLWEL [E4S], the protein stability index amounted to 4.26. Same read-out and setting: in the case of TVHYVDIFRCFCPVFLHSQMLWEL [E4Y] it was 3.35; in that of TVHRVDIFRCFCPVFLHSQMLWEL [E4R], 3.14.

Regarding TVHEVDIFDCFCPVFLHSQMLWEL [R9D], the protein stability index came out at 2.96. The same measure, in the same setting: next, TVHEVDIFECFCPVFLHSQMLWEL [R9E]: 4.78. For TVHEVDIFTCFCPVFLHSQMLWEL [R9T], the protein stability index turned out to be 1.99.

Regarding TVHEVDIFHCFCPVFLHSQMLWEL [R9H], the protein stability index stood at 2.19.

Consider TVHEVDIFACFCPVFLHSQMLWEL [R9A], for which the protein stability index is 2.82.

TVHEVDIFFCFCPVFLHSQMLWEL [R9F]: the protein stability index came out at 2.13. Same read-out and setting: in the case of TVHEVDIFPCFCPVFLHSQMLWEL [R9P] it was 1.77; in that of TVHEVDIFSCFCPVFLHSQMLWEL [R9S], 3.12.

Turning to TVHEVDIFQCFCPVFLHSQMLWEL [R9Q], the protein stability index was 3.69. As to TVHEVDIPRCFCPVFLHSQMLWEL [F8P], the protein stability index was determined as 2.36.

As for TVHEVDIRRCFCPVFLHSQMLWEL [F8R], the protein stability index is 1.45. TVHEVDIKRCFCPVFLHSQMLWEL [F8K]: the protein stability index was 2.31. The same measure, in the same setting: in the case of TVHEVDIARCFCPVFLHSQMLWEL [F8A] it was 2.53.

As for TVHEVDIYRCFCPVFLHSQMLWEL [F8Y], the protein stability index amounted to 2.89. Consider TVHEVDIGRCFCPVFLHSQMLWEL [F8G], for which the protein stability index was determined as 1.07. As to TVHEVDICRCFCPVFLHSQMLWEL [F8C], the protein stability index was 2.96. In the case of TVHEVDIHRCFCPVFLHSQMLWEL [F8H], the protein stability index was 1. Same read-out and setting: in the case of TVHEVDIWRCFCPVFLHSQMLWEL [F8W] it was 3.88; in that of TVHEVDIMRCFCPVFLHSQMLWEL [F8M], 3.18; in that of TVHEVDILRCFCPVFLHSQMLWEL [F8L], 3.07. Still for that read-out and setting: next, TVHEVDIVRCFCPVFLHSQMLWEL [F8V]: 2.4; TVHEVDINRCFCPVFLHSQMLWEL [F8N]: 2.05. Still for that read-out and setting: next, TVHERDIFRCFCPVFLHSQMLWEL [V5R]: 4.06.

Turning to TVHENDIFRCFCPVFLHSQMLWEL [V5N], the protein stability index turned out to be 1.84.

TVHETDIFRCFCPVFLHSQMLWEL [V5T]: the protein stability index came out at 3.3. The same measure, in the same setting: next, TVHEYDIFRCFCPVFLHSQMLWEL [V5Y]: 2.28; TVHESDIFRCFCPVFLHSQMLWEL [V5S]: 2.17. With TVHEWDIFRCFCPVFLHSQMLWEL [V5W], the protein stability index came to 2.47.

TVHEKDIFRCFCPVFLHSQMLWEL [V5K]: the protein stability index is 1.93.

As to TWHEVDIFRCFCPVFLHSQMLWEL [V2W], the protein stability index was found to be 2.7. The same measure, in the same setting: next, TKHEVDIFRCFCPVFLHSQMLWEL [V2K]: 1.73.

Consider TAHEVDIFRCFCPVFLHSQMLWEL [V2A], for which the protein stability index came out at 1.77. Still for that read-out and setting: next, TQHEVDIFRCFCPVFLHSQMLWEL [V2Q]: 2.08; TRHEVDIFRCFCPVFLHSQMLWEL [V2R]: 3.97. Regarding TEHEVDIFRCFCPVFLHSQMLWEL [V2E], the protein stability index turned out to be 1.04. On the same count and under the same terms, next, TCHEVDIFRCFCPVFLHSQMLWEL [V2C]: 2.57. Regarding TMHEVDIFRCFCPVFLHSQMLWEL [V2M], the protein stability index was 2.05. Same read-out and setting: in the case of TNHEVDIFRCFCPVFLHSQMLWEL [V2N] it was 1.76. On the same count and under the same terms, next, TYHEVDIFRCFCPVFLHSQMLWEL [V2Y]: 3.92; TVFEVDIFRCFCPVFLHSQMLWEL [H3F]: 2.37.

Turning to TVYEVDIFRCFCPVFLHSQMLWEL [H3Y], the protein stability index worked out at 3.37.

On to TVPEVDIFRCFCPVFLHSQMLWEL [H3P], for which the protein stability index was 3.24. Consider TVGEVDIFRCFCPVFLHSQMLWEL [H3G], for which the protein stability index came to 3.96. Take TVNEVDIFRCFCPVFLHSQMLWEL [H3N]: the protein stability index was found to be 3.08. Regarding TVWEVDIFRCFCPVFLHSQMLWEL [H3W], the protein stability index amounted to 3.13.

On to TVKEVDIFRCFCPVFLHSQMLWEL [H3K], for which the protein stability index was 2.14. For the variant TVLEVDIFRCFCPVFLHSQMLWEL [H3L], the protein stability index stood at 2.85.

Consider TVDEVDIFRCFCPVFLHSQMLWEL [H3D], for which the protein stability index was 2.26. The same measure, in the same setting: in the case of TVEEVDIFRCFCPVFLHSQMLWEL [H3E] it was 1.82; in that of TVTEVDIFRCFCPVFLHSQMLWEL [H3T], 1.85; in that of TVHEVAIFRCFCPVFLHSQMLWEL [D6A], 4.47.

Turning to TVHEVNIFRCFCPVFLHSQMLWEL [D6N], the protein stability index worked out at 3.02. In the case of TVHEVWIFRCFCPVFLHSQMLWEL [D6W], the protein stability index is 3.69. Consider TVHEVHIFRCFCPVFLHSQMLWEL [D6H], for which the protein stability index was 2.23. For TVHEVKIFRCFCPVFLHSQMLWEL [D6K], the protein stability index turned out to be 2.61.

Take TVHEVPIFRCFCPVFLHSQMLWEL [D6P]: the protein stability index was determined as 1.7.

On to TVHEVQIFRCFCPVFLHSQMLWEL [D6Q], for which the protein stability index came to 2.07.

As to TVHEVYIFRCFCPVFLHSQMLWEL [D6Y], the protein stability index was 2.19.

For the variant TVHEVIIFRCFCPVFLHSQMLWEL [D6I], the protein stability index amounted to 2.2.
